Assay results taken from article PMC7766085.

How the values were obtained:
[1] = biological target: AT1R, endogenous in mouse lung (mouse (endogenous in CD-1 mouse lung)) (UniProt P29754); experiment: proximity ligation; in situ PLA on fixed 30 µm lung sections of adult CD-1 mice; primary antibodies to the receptor and to ACE2, Duolink II probes anti-rabbit plus and anti-mouse minus; confocal microscopy
[2] = biological target: MasR, endogenous in mouse lung (mouse (endogenous in CD-1 mouse lung)) (UniProt P30554); experiment: as above
[3] = biological target: AT1R, endogenous in mouse lung (mouse (endogenous in CD-1 mouse lung)) (UniProt P29754); experiment: proximity ligation; in situ PLA on fixed 30 µm lung sections of 19-day fetal CD-1 mice; primary antibodies to the receptor and to ACE2, Duolink II probes anti-rabbit plus and anti-mouse minus; confocal microscopy
[4] = biological target: MasR, endogenous in mouse lung (mouse (endogenous in CD-1 mouse lung)) (UniProt P30554); experiment: as above
[5] = biological target: AT2R, endogenous in mouse lung (mouse (endogenous in CD-1 mouse lung)) (UniProt P35374); experiment: proximity ligation; in situ PLA on fixed 30 µm lung sections of adult CD-1 mice; primary antibodies to the receptor and to ACE2, Duolink II probes anti-rabbit plus and anti-mouse minus; confocal microscopy
[6] = biological target: AT2R, endogenous in mouse lung (mouse (endogenous in CD-1 mouse lung)) (UniProt P35374); experiment: proximity ligation; in situ PLA on fixed 30 µm lung sections of 19-day fetal CD-1 mice; primary antibodies to the receptor and to ACE2, Duolink II probes anti-rabbit plus and anti-mouse minus; confocal microscopy

UniProt P35374, sequence (P35374 whole entry): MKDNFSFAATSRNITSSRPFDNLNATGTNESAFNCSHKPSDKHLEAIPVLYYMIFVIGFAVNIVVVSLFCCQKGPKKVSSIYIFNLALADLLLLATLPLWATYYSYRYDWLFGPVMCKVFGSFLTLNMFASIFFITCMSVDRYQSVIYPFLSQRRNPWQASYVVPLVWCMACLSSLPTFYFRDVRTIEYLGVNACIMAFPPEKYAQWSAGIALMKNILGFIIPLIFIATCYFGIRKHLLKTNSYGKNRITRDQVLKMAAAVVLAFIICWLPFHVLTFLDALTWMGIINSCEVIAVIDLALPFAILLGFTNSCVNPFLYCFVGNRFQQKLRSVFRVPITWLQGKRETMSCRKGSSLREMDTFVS
UniProt P29754, sequence (P29754 whole entry): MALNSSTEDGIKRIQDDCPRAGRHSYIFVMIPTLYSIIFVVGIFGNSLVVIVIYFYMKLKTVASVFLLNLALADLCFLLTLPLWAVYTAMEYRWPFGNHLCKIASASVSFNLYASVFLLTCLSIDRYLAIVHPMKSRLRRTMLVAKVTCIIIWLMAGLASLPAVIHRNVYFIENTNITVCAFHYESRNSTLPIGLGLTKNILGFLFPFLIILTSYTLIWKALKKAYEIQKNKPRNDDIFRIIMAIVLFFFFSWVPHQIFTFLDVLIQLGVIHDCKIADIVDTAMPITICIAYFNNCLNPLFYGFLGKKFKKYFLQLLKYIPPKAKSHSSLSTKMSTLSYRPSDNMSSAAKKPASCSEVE
UniProt P30554, sequence (P30554 whole entry): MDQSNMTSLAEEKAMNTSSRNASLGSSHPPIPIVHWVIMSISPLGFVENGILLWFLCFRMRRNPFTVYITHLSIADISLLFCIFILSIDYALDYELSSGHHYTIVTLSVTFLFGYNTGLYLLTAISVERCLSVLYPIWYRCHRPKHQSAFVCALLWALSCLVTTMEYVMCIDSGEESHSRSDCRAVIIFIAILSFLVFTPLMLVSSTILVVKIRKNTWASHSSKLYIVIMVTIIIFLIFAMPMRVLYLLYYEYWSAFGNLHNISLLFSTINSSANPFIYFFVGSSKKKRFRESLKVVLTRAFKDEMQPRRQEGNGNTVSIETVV

Row | Substance | percent of cells with PLA signal [1] | red dots per dot-containing cell (red dots/cell-expressing dots) [1] | percent of cells with PLA signal [2] | red dots per dot-containing cell (red dots/cell-expressing dots) [2] | percent of cells with PLA signal [3] | percent of cells with PLA signal [4] | percent of cells with PLA signal [5] | red dots per dot-containing cell (red dots/cell-expressing dots) [5] | percent of cells with PLA signal [6]
1 | ACE2, endogenous in mouse lung (from UniProt Q8R0I0 18-805) (enzyme) | 14 % of cells | 10 | 8 % of cells | 7 | < 1 % of cells | < 1 % of cells |  |  | 
2 | ACE2, endogenous in mouse lung (from UniProt Q8R0I0 18-805) (proximity to ACE2) |  |  |  |  |  |  | 11 % of cells | 6 | < 1 % of cells
